Data published in PMC3101314.

How the values were obtained:
[1] = target: mature HIV-1 protease bearing drug-resistance mutation L76V (PR_(L76V)) (HIV-1); test: ITC
[2] = target: mature HIV-1 protease bearing drug-resistance mutation L76V (PR_(L76V)) (HIV-1); test: enzyme activity against protease concentration

| Substance | Kd [1] | Kd [2] |
| --- | --- | --- |
| RPB inhibitor (H-Arg-Val-Leu-(r)-Phe-Glu-Ala-Nle-NH2), substrate-analog inhibitor with a reduced peptide bond | 61 nM | – |
| mature HIV-1 protease bearing drug-resistance mutation L76V (PR_(L76V)) (enzyme) | – | 71 nM |
